# According to the supplement of paper PMC9170038:
# System: K4 kissing-loop RNA reporter
# Assay: apparent KD of K4 kissing-loop reporter; higher = weaker reporter binding
# Conditions: Eterna round: R107
# Description: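 RNA-MaP round R107: designed RNA switches with theophylline, tryptophan, arginine or FMN aptamers are transcribed on-chip within common flanks. They are titrated with a labelled K4 kissing-loop RNA reporter in RNA-MaP buffer (100 mM Tris pH 7.5, 80 mM KCl, 4 mM MgCl2), without ligand or with the indicated ligand. Median apparent KD per design.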
# [1] = input ligand: theophylline 20 uM
# [2] = input ligand: tryptophan 2.4 mM
# 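Further: bound reporter read as fluorescence of individual clusters on recovered sequencing chips by microscopy, with normalized cluster intensities fitted with a binding model.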
sequence,measurement,setting,value
GGUCCGGGCUCGGCCGCCACUCCCUCGUACCGCAAGGUAUGAUACCGAGUGAUGUUCGGUUGGAGGAGGACCGGGAGCCCGGACC [#2 Exclusion - Tryptophan B Attempt #9 (HarryS)],apparent KD of K4 kissing-loop reporter,input ligand: FMN 200 uM,112 nM
same,apparent KD of K4 kissing-loop reporter,input ligand: arginine 13.2 mM,110 nM
same,apparent KD of K4 kissing-loop reporter,input ligand: none,132 nM
same,apparent KD of K4 kissing-loop reporter,[1],124 nM
same,apparent KD of K4 kissing-loop reporter,[2],100 nM
AUGCGCGCGGCGGCCGCCACUCGCAUGAGAGUGAUGUUCUCGCCGGGCCCGGAAGGGCCCGGUGUGAGGACCGGGCCGGGCUGCG [#2 Same State - Tryptophan B Attempt #17 (HarryS)],apparent KD of K4 kissing-loop reporter,input ligand: FMN 200 uM,121 nM
same,apparent KD of K4 kissing-loop reporter,input ligand: arginine 13.2 mM,73.2 nM
same,apparent KD of K4 kissing-loop reporter,input ligand: none,175 nM
same,apparent KD of K4 kissing-loop reporter,[1],278 nM
same,apparent KD of K4 kissing-loop reporter,[2],344 nM
UACCUGCUGUCAGGAUAUGAGUGCAGUGAUGUUGCACUCAACGUAACCAUCUUGAAAUACAAACACUCAGAAGGGACGCACGAAG [Isattema],apparent KD of K4 kissing-loop reporter,input ligand: FMN 200 uM,183 nM
same,apparent KD of K4 kissing-loop reporter,input ligand: arginine 13.2 mM,95.9 nM
same,apparent KD of K4 kissing-loop reporter,input ligand: none,140 nM
same,apparent KD of K4 kissing-loop reporter,[1],167 nM
same,apparent KD of K4 kissing-loop reporter,[2],191 nM
GAUUUAGAGGCGGCCGCCACUAGUGAUGUUAGUGAUGUUUGAUACUGAAUAUAUCGGCGUGUAGAUAGGACCGGGCCAGAUGGAG [zwqqmullin],apparent KD of K4 kissing-loop reporter,input ligand: FMN 200 uM,221 nM
same,apparent KD of K4 kissing-loop reporter,input ligand: arginine 13.2 mM,179 nM
same,apparent KD of K4 kissing-loop reporter,input ligand: none,218 nM
same,apparent KD of K4 kissing-loop reporter,[1],211 nM
same,apparent KD of K4 kissing-loop reporter,[2],203 nM
AAGUCAUAGGCAGGAUAUGCAUUGUAGUAAGGCAAUAUAUACGUAUAGAGUGAUGUUUUGUACCAGGCAGAAGGGCUACAUCAGU [FMN B Excl V11 (+G)],apparent KD of K4 kissing-loop reporter,input ligand: FMN 200 uM,826 nM
same,apparent KD of K4 kissing-loop reporter,input ligand: arginine 13.2 mM,367 nM
same,apparent KD of K4 kissing-loop reporter,input ligand: none,645 nM
same,apparent KD of K4 kissing-loop reporter,[1],868 nM
same,apparent KD of K4 kissing-loop reporter,[2],492 nM
CAAACUCUGACGGCCGCCACUAAUCGUGUAACAGUGAUGUUGUUACAUCAAAGAUGGGUUGCGUGUAGGACCGGGUCGACGCAAA [theeternabot_exclusion_KL_Trp_B_48],apparent KD of K4 kissing-loop reporter,input ligand: FMN 200 uM,131 nM
same,apparent KD of K4 kissing-loop reporter,input ligand: arginine 13.2 mM,120 nM
same,apparent KD of K4 kissing-loop reporter,input ligand: none,120 nM
same,apparent KD of K4 kissing-loop reporter,[1],111 nM
same,apparent KD of K4 kissing-loop reporter,[2],124 nM
AACAGCAAUGCGGCCGCCACUUCGAGGUCAGUGAUGUUGACGGGAUUAAAUAAAGAUCCCAAGAGGAGGACCGGGCAGUGCUGUU [whbob_SS_Tryp_B_t26],apparent KD of K4 kissing-loop reporter,input ligand: FMN 200 uM,225 nM
same,apparent KD of K4 kissing-loop reporter,input ligand: arginine 13.2 mM,195 nM
same,apparent KD of K4 kissing-loop reporter,input ligand: none,215 nM
same,apparent KD of K4 kissing-loop reporter,[1],176 nM
same,apparent KD of K4 kissing-loop reporter,[2],192 nM
AGCUGUGGCAGAAGGAGCGACAGUUAUUCUGAUAGUACUCUGAGUGAUGUUCAGAACGACUGUCAGGUAGGUCGCUGUCACAGCU [#01 K4 Arginine B Exclusion],apparent KD of K4 kissing-loop reporter,input ligand: FMN 200 uM,172 nM
same,apparent KD of K4 kissing-loop reporter,input ligand: arginine 13.2 mM,159 nM
same,apparent KD of K4 kissing-loop reporter,input ligand: none,175 nM
same,apparent KD of K4 kissing-loop reporter,[1],153 nM
same,apparent KD of K4 kissing-loop reporter,[2],169 nM
UAUUUGAUGUCAGGAUAUCGUAUACGAGUGAUGUUCGUAUUUCUACUAUAGAUUAUUUAAAUUUUUCGAGAAGGGACAACAUUUA [#04 K4 FMN B Same State],apparent KD of K4 kissing-loop reporter,input ligand: FMN 200 uM,151 nM
same,apparent KD of K4 kissing-loop reporter,input ligand: arginine 13.2 mM,93.3 nM
same,apparent KD of K4 kissing-loop reporter,input ligand: none,115 nM
same,apparent KD of K4 kissing-loop reporter,[1],140 nM
same,apparent KD of K4 kissing-loop reporter,[2],122 nM
CGCAGUGAUGUUGCGAGUAGCUACAGGGAAGGAGCGCGCUAGUGCGCAGGUAGGUCGCCCACGCAGUGAUGUUGCGUCAUAGGGU [Exclusion Arg A GF8],apparent KD of K4 kissing-loop reporter,input ligand: FMN 200 uM,139 nM
same,apparent KD of K4 kissing-loop reporter,input ligand: arginine 13.2 mM,114 nM
same,apparent KD of K4 kissing-loop reporter,input ligand: none,114 nM
same,apparent KD of K4 kissing-loop reporter,[1],137 nM
same,apparent KD of K4 kissing-loop reporter,[2],109 nM
